Test results: the supplement of paper PMC9112550, “Optimization of the antimicrobial peptide Bac7 by deep mutational scanning” (BMC Biology, 2022)

Test system: Escherichia coli TOP10
Test: shrunken log2 fold change of peptide-encoding DNA abundance (4.5 h post-induction vs induction); higher = less antimicrobial activity (less host growth inhibition)
Conditions: time post-induction: 4.5 h; library: site-saturation at positions 5, 18, 19, 20
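Also: peptides expressed intracellularly from a pBAD plasmid library in pooled LB shake-flask culture, induced with 0.3% L-arabinose, DNA abundance read by NGS, three biological replicates, DESeq2 with apeglm shrinkage.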

| Sequence | shrunken log2 fold change |
| --- | --- |
| RRIRMRPPRLPRPRPRPVVVPRP | -0.0177 |
| RRIRIRPPRLPRPRPRPREHPRP | -0.393 |
| RRIRHRPPRLPRPRPRPEKKPRP | -0.00333 |
| RRIRMRPPRLPRPRPRPRCPPRP | 0.757 |
| RRIRVRPPRLPRPRPRPNLFPRP | -0.355 |
| RRIRPRPPRLPRPRPRPYAVPRP | -0.712 |
| RRIRWRPPRLPRPRPRPPRCPRP | 0.483 |
| RRIRGRPPRLPRPRPRPFTAPRP | 0.272 |
| RRIRYRPPRLPRPRPRPFDSPRP | -0.0136 |
| RRIRFRPPRLPRPRPRPPISPRP | -0.239 |
| RRIRRRPPRLPRPRPRPFWSPRP | 0.18 |
| RRIRDRPPRLPRPRPRPSPLPRP | -0.126 |
| RRIRWRPPRLPRPRPRPKFNPRP | -0.434 |
| RRIRPRPPRLPRPRPRPMFAPRP | -0.0605 |
| RRIRNRPPRLPRPRPRPTPEPRP | 0.0889 |
| RRIRRRPPRLPRPRPRPCFWPRP | 0.406 |
| RRIRPRPPRLPRPRPRPMQDPRP | 0.0218 |
| RRIRHRPPRLPRPRPRPVHLPRP | -0.0199 |
| RRIRKRPPRLPRPRPRPKNFPRP | -0.148 |
| RRIRDRPPRLPRPRPRPGQAPRP | 0.0989 |
| RRIRKRPPRLPRPRPRPLGMPRP | 0.11 |
| RRIRGRPPRLPRPRPRPWIIPRP | -0.121 |
| RRIRKRPPRLPRPRPRPWKAPRP | 0.49 |
| RRIRARPPRLPRPRPRPMLEPRP | 0.455 |
| RRIRHRPPRLPRPRPRPAFRPRP | 0.0888 |

| Sequence | shrunken log2 fold change |
| --- | --- |
| RRIRGRPPRLPRPRPRPYGAPRP | -0.00762 |
| RRIRVRPPRLPRPRPRPSQIPRP | -0.206 |
| RRIRQRPPRLPRPRPRPTVVPRP | -0.00822 |
| RRIRTRPPRLPRPRPRPPPDPRP | 0.58 |
| RRIRVRPPRLPRPRPRPGLPPRP | 0.113 |
| RRIRWRPPRLPRPRPRPPWIPRP | 1.44 |
| RRIRQRPPRLPRPRPRPEKFPRP | -0.029 |
| RRIRWRPPRLPRPRPRPQPIPRP | 0.813 |
| RRIRDRPPRLPRPRPRPIANPRP | 0.274 |
| RRIRRRPPRLPRPRPRPCARPRP | 0.395 |
| RRIRRRPPRLPRPRPRPCGEPRP | 0.0238 |
| RRIRMRPPRLPRPRPRPKQRPRP | 1.1 |
| RRIRIRPPRLPRPRPRPFEFPRP | -0.00107 |
| RRIRQRPPRLPRPRPRPPIYPRP | -0.129 |
| RRIRWRPPRLPRPRPRPIVSPRP | -0.000687 |
| RRIRTRPPRLPRPRPRPIWCPRP | -0.0116 |
| RRIRIRPPRLPRPRPRPIMWPRP | -0.0162 |
| RRIRPRPPRLPRPRPRPHCGPRP | -0.168 |
| RRIRTRPPRLPRPRPRPYDWPRP | -0.696 |
| RRIRHRPPRLPRPRPRPRSVPRP | 0.0714 |
| RRIRTRPPRLPRPRPRPDKLPRP | 0.0136 |
| RRIRKRPPRLPRPRPRPTMTPRP | 0.608 |
| RRIRARPPRLPRPRPRPWIYPRP | -0.647 |
| RRIRPRPPRLPRPRPRPDLGPRP | 0.215 |
| RRIRMRPPRLPRPRPRPEFEPRP | -0.0141 |

| Sequence | shrunken log2 fold change |
| --- | --- |
| RRIRPRPPRLPRPRPRPWQVPRP | -0.0573 |
| RRIRCRPPRLPRPRPRPKKIPRP | 0.00547 |
| RRIRARPPRLPRPRPRPNAAPRP | 1.13 |
| RRIRMRPPRLPRPRPRPGMKPRP | 0.282 |
| RRIRWRPPRLPRPRPRPFVCPRP | -0.108 |
| RRIRIRPPRLPRPRPRPWWDPRP | -0.309 |
| RRIRVRPPRLPRPRPRPISCPRP | 0.0771 |
| RRIRKRPPRLPRPRPRPKCDPRP | 0.405 |
| RRIRFRPPRLPRPRPRPMCLPRP | -0.564 |
| RRIRMRPPRLPRPRPRPTPYPRP | 0.2 |
| RRIRARPPRLPRPRPRPQPYPRP | -0.3 |
| RRIRYRPPRLPRPRPRPVFGPRP | -0.415 |
| RRIRRRPPRLPRPRPRPKNLPRP | -0.104 |
| RRIRTRPPRLPRPRPRPMGAPRP | -0.0569 |
| RRIRNRPPRLPRPRPRPIHAPRP | -0.0866 |
| RRIRVRPPRLPRPRPRPKPHPRP | 0.264 |
| RRIRMRPPRLPRPRPRPNLKPRP | 0.158 |
| RRIRFRPPRLPRPRPRPVPIPRP | -0.0344 |
| RRIRVRPPRLPRPRPRPVMEPRP | -0.186 |
| RRIRIRPPRLPRPRPRPWYHPRP | -0.351 |
| RRIRKRPPRLPRPRPRPAWAPRP | 0.577 |
| RRIRFRPPRLPRPRPRPTDNPRP | -0.205 |
| RRIRERPPRLPRPRPRPPDWPRP | 0.674 |
| RRIRVRPPRLPRPRPRPVPHPRP | 0.135 |
| RRIRSRPPRLPRPRPRPEVLPRP | -0.0111 |
